Measured values as given in article PMC6432756.

Experiments:
[1] = target: D-allulose 3-epimerase from Staphylococcus aureus (Staphylococcus aureus); test: MALDI-TOF mass spectrometry; purified enzyme on HCCA matrix, acetonitrile-water 70:30 with 0.01% trifluoroacetic acid, linear mode
[2] = target: D-allulose 3-epimerase from Staphylococcus aureus (Staphylococcus aureus); test: SEC; purified SaDAE on Superdex 200 Increase 10/300 GL, 20 mM Tris-HCl pH 8.0, 100 mM NaCl, 1 mM DTT; markers conalbumin (75.0 kDa) and aldolase (158.0 kDa)

stoichiometry N [1]: 4
stoichiometry N [2]: 4
Substance: D-allulose 3-epimerase from Staphylococcus aureus (enzyme)
